Test results taken from publication PMC5318895, “Inhibition of N1-Src kinase by a specific SH3 peptide ligand reveals a role for N1-Src in neurite elongation by L1-CAM” (Scientific Reports, 2017).
Values belong to the molecule of their own block, whether it stands above or below them. No end group written: not given here.

Experiments:
N1-Src [1] = molecular target: T1, N1-Src (Rattus norvegicus, UniProt Q9WUD9); test: co-immunoprecipitation of N1-Src-FLAG and CFP-PDN1 from COS7 cells; format: binding; design: His; made in house; host or cells: E. coli; settings: COS7 cells co-transfected with N1-Src-FLAG, lysed after 48 h; anti-FLAG IP, anti-GFP detection
N1-Src [2] = molecular target: T1, N1-Src; test: morphology of COS7 cells transfected with N1-Src-FLAG; format: cell-based; settings: for effect on N1-Src-induced shrinkage of the cell soma (cell area) / effect on number of neurites (processes) per cell: COS7, co-transfection with N1-Src-FLAG 48 h, mean, n = 3 experiments, one way ANOVA
Method: (§1) Previous studies have shown that soluble SH3 ligands can enhance Src family kinase activity in vitro[20][21]. […] This experiment raised the possibility that PDN1 could act as an N1-Src inhibitor in cells. […] We observed that COS7 cells transfected with N1-Src-FLAG underwent a striking change in morphology within 48 h (Fig. 3a). Similar to that previously observed in Xenopus epithelial cells, overexpression of the kinase induced the growth of neurite-like processes (Fig. 3b) and an approximate 35% reduction in area of the cell soma (Fig. 3c). […] Using cell morphology as a readout, we assessed the effect of CFP-PDN1 and PDN1(P5A) on N1-Src activity in cells. […] Furthermore, the peptides had no significant effect upon the morphology of C-Src transfected cells. We also assessed the effect of PDN1 on N2-Src expressing cells because the first five amino acids of its SH3 insert are identical to that in N1-Src[3].
Figure 3 CFP-PDN1 inhibits the biological activity of N1-Src in cells. (a) COS7 cells were transfected for 48 h with empty plasmid (FLAG), C-, N1- or N2-Src-FLAG in combination with CFP, CFP-PDN1 or CFP-PDN1(P5A) and processed for immunofluorescence (green = CFP, red = Src-FLAG). Scale bar = 10 μm. Twenty representative fields of view (~50 cells) per condition in each experiment were analysed to quantify (b) number of processes per cell and (c). Data were plotted as mean ± SEM (n = 3 experiments). Statistical analysis was performed by one way ANOVA and post-hoc Tukey test (*P < 0.05; ***P < 0.001; n.s = not significant).
COS7 cells were plated at a density of 3 × 10^4 cells per well of a 24 well plate or 10^5 cells per well of a 6 well plate and transfected using EcoTransfect 24 h after plating according to the manufacturer’s instructions (Oz Biosciences, Marseille, France). Rat cerebellar granule and hippocampal neurons were prepared as previously described[40][41] and approved by the Biology Ethics Committee, University of York. The animals were euthanised according to Schedule 1 of the UK Home Office Animals (Scientific Procedures) Act. Neurons were plated at a density of 2.5 × 10^5 cells per coverslip and transfected after 24 h using a calcium phosphate kit (Promega, Southampton, UK) or Lipofectamine2000 (Invitrogen, Paisley UK) according to the manufacturer’s instructions. Following transfection the medium was replaced with MEM culture medium with 10 μM arabinofuranosyl cytidine for the indicated time before fixing for staining and morphological analysis. For L1-CAM assays, a 10 μl droplet containing 25 μg/ml L1-CAM extracellular domain (R&D Systems) and 1 mg/ml fluorescein isothiocyanate (FITC) was spotted onto the centre of a poly-D-lysine coated coverslip and air dried for 1 h prior to plating neurons.
Analysis of COS7 cell area was performed with ImageJ software. The NeuronJ plugin[43] was used for the quantification of process length and branching in both COS7 cells and neurons. Where appropriate, statistical analyses of the data were performed with SigmaPlot software using one way ANOVA or Kruskal-Wallis tests with post-hoc pairwise comparisons by Tukey or Dunn tests respectively.

N1-Src [3] = molecular target: T1, N1-Src; test: inhibition of N1-Src phosphorylation of GST-Y by free soluble peptide; format: biochemical; design: His; made in house; host or cells: E. coli; settings: free soluble peptide titrated with 5 nM N1-Src and GST-Y; phosphotyrosine immunoblot densitometry; n = 3
Method: Previous studies have shown that soluble SH3 ligands can enhance Src family kinase activity in vitro[20][21]. […] This experiment raised the possibility that PDN1 could act as an N1-Src inhibitor in cells. […] We observed that COS7 cells transfected with N1-Src-FLAG underwent a striking change in morphology within 48 h (Fig. 3a). Similar to that previously observed in Xenopus epithelial cells, overexpression of the kinase induced the growth of neurite-like processes (Fig. 3b) and an approximate 35% reduction in area of the cell soma (Fig. 3c). […] Using cell morphology as a readout, we assessed the effect of CFP-PDN1 and PDN1(P5A) on N1-Src activity in cells. […] We also assessed the effect of PDN1 on N2-Src expressing cells because the first five amino acids of its SH3 insert are identical to that in N1-Src[3].
Figure 2 PDN1 inhibits N1-Src activity in vitro. GST-Y was incubated with 5 nM N1-Src and the indicated concentrations of either PDN1 or PDN1(P5A) and the extent of phosphorylation determined by densitometry of phosphotyrosine immunoreactivity. […]
Phosphorylation reactions were performed as previously described, prepared in kinase reaction buffer (100 mM Tris, 10 mM MgCl2, pH 7.5) and initiated by the addition of pre-warmed ATP (0.5 mM final concentration) and incubated at 30 °C for the indicated times. […] Due to the non-quantitative measurement of V, Vmax was not determined. […]

[4] = test system: cerebellar granule neurons; test: L1-CAM-dependent neurite elongation in cultured cerebellar granule neurons; format: cell-based, rat; settings: n = 3 experiments
Source text: A previous study of Src^−/− mice provided a possible mechanism for the effects of N1-Src upon neurite development. […] Src^−/− mice lack C-, N1- and N2-Src, but the isoform responsible for the impaired neurite outgrowth on L1-CAM was not identified in the study. We therefore investigated whether PDN1 affects L1-CAM-dependent neurite growth in cultured CGNs. Recombinant L1-CAM extracellular domain mixed with the fluorescent dye FITC were spotted in the centre of poly-D-lysine (polyLys) coated glass coverslips (Fig. 6a). CGNs were then plated over the whole surface of the coverslip, allowing a direct comparison between neurons growing on L1-CAM and polyLys.
Figure 6 PDN1 inhibits neurite elongation mediated by L1-CAM. (a) Schematic of the poly-D-lysine (polyLys) coated coverslips treated with a droplet of L1-CAM and FITC. […] (b) Cultured cerebellar granule neurons transfected with CFP were grown on the indicated concentrations of L1-CAM and the length of the longest neurite (axon) determined. (c,d) CGNs were plated on polyLys coated coverslips with a region of […] L1-CAM (see a) and transfected after 24 h with CFP (control) or CFP-PDN1 for 48 h prior to fixing and processing for fluorescence microscopy. Length of longest neurite (c) and branches on the longest neurite (d) were quantified for neurons in the polyLys or L1-CAM regions using the NeuronJ plugin for ImageJ. All data were plotted as mean ± SEM, n = 3 experiments with 30 cells analysed per condition for each experiment. Statistical analysis was performed by one way ANOVA and post-hoc Tukey test (*P < 0.05; **P < 0.01; n.s = not significant).
Using a concentration of 25 μg/ml L1-CAM, which induced a 50% increase in neurite length, we then determined the effect of CFP-PDN1 transfection on neurite length on L1-CAM or polyLys. […]
(§2) Analysis of COS7 cell area was performed with ImageJ software. The NeuronJ plugin[43] was used for the quantification of process length and branching in both COS7 cells and neurons. […]

[5] = test system: cerebellar granule neurons; test: neurite outgrowth of cultured cerebellar granule neurons (polyLys); format: cell-based, rat; settings: n = 3 experiments, 30 cells per condition
Method: We next took advantage of the specificity of PDN1 to investigate the role of endogenous N1-Src in neurite outgrowth in cultured neurons. CFP-PDN1 or -PDN1(P5A) was transfected into 1 DIV CGNs and their morphology analysed after […]. During CGN development in vivo and immediately after plating in vitro, the cells grow two processes before polarising to yield a single axon and the second process retracts to become a dendrite and further dendrites are initiated. The axon then extends further before bifurcating. […] To further confirm that N1-Src regulates neurite growth we employed an shRNA expressing plasmid (pSUPER-GFP) to knockdown N1-Src in neurons. […] The successful N1-Src shRNA plasmid was transfected into hippocampal neurons, and the length of the longest neurite in GFP-positive neurons was assessed at 48 h and 96 h post-transfection. […] Thus, perturbing N1-Src activity with PDN1 or knockdown of the protein produces the same neurite phenotype in primary neuronal cultures.
Figure 4 PDN1 inhibits neurite growth in cultured neurons. (a) Cultured cerebellar granule neurons were transfected 24 h after plating with CFP, CFP-PDN1 or CFP-PDN1(P5A) for 48 h prior to fixing and processing for immunofluorescence. Scale bar = 10 μm. (b,c) Length of longest neurite and branches per longest neurite were quantified using the NeuronJ plugin for ImageJ. Data were plotted as mean ± SEM, n = 3 experiments with 30 cells analysed per condition for each experiment. Statistical analysis was performed by one way ANOVA and post-hoc Tukey test (*P < 0.05; ***P < 0.001; n.s = not significant).
COS7 cells were plated at a density of 3 × 10^4 cells per well of a 24 well plate or 10^5 cells per well of a 6 well plate and transfected using EcoTransfect 24 h after plating according to the manufacturer’s instructions (Oz Biosciences, Marseille, France). […]
as §2

N2-Src = test: morphology of COS7 cells transfected with N2-Src-FLAG; format: cell-based; settings: COS7, co-transfection with N2-Src-FLAG 48 h; n = 3 experiments
Method: as §1
Figure 3 CFP-PDN1 inhibits the biological activity of N1-Src in cells. […] Twenty representative fields of view (~50 cells) per condition in each experiment were analysed to quantify (b) number of processes per cell and (c). […]
as §2

[6] = CGNs transfected with CFP fusions, one way ANOVA

binding to N1-Src in cells (co-immunoprecipitation) (N1-Src [1]): greatly reduced
Molecule: CFP-PDN1(P5A): PDN1(P5A) mutant fused to CFP, expressed in transfected cells (WHRMAAYTAKYP; also: fused to CFP, end not given here)
effect on N1-Src-induced shrinkage of the cell soma (cell area) (N1-Src [2]): no significant effect on either parameter | effect on number of neurites (processes) per cell (N1-Src [2]): no significant effect on either parameter

inhibition of GST-Y phosphorylation (N1-Src [3]): no significant inhibition
Molecule: PDN1(P5A): PDN1(P5A) mutant peptide (WHRMAAYTAKYP)

binding to N1-Src in cells (co-immunoprecipitation) (N1-Src [1]): can bind N1-Src in cells | effect on number of neurites (processes) per cell (N1-Src [2]): reduced the number of neurites per cell
Molecule: CFP-PDN1: PDN1 fused to CFP, expressed in transfected cells (WHRMPAYTAKYP; also: fused to CFP, end not given here)
length of longest neurite on L1-CAM compared with polyLys ([4]; CFP-PDN1 transfected CGNs on L1-CAM (25 μg/ml in text), 48 h, 30 cells per condition): not significantly different to that on polyLys | effect on N1-Src-induced shrinkage of the cell soma (cell area) (N1-Src [2]): prevented both the shrinkage of the cell soma | selectivity for N1-Src in cells (N1-Src [2]; COS7, compared with C-Src and N2-Src): selective for the N1-Src splice variant in cells | inhibition of mean length of longest neurite on polyLys ([5]; CGNs grown on polyLys, transfected 24 h after plating, 48 h): approximately 40% | branches per longest neurite [5, 6]: longest neurite branching was inhibited | length of longest neurite [5, 6]: reduced in length | rescue of morphology of N2-Src transfected cells (N2-Src): did not rescue wild type morphology

B1: L1-CAM: Recombinant L1-CAM extracellular domain (R&D Systems) (protein, UniProt P32004 20-1120, looked up)
extracellular domain: IQIPEEYEGHHVMEPPVITEQSPRRLVVFPTDDISLKCEASGKPEVQFRWTRDGVHFKPKEELGVTVYQSPHSGSFTITGNNSNFAQRFQGIYRCFASNKLGTAMSHEIRLMAEGAPKWPKETVKPVEVEEGESVVLPCNPPPSAEPLRIYWMNSKILHIKQDERVTMGQNGNLYFANVLTSDNHSDYICHAHFPGTRTIIQKEPIDLRVKATNSMIDRKPRLLFPTNSSSHLVALQGQPLVLECIAEGFPTPTIKWLRPSGPMPADRVTYQNHNKTLQLLKVGEEDDGEYRCLAENSLGSARHAYYVTVEAAPYWLHKPQSHLYGPGETARLDCQVQGRPQPEVTWRINGIPVEELAKDQKYRIQRGALILSNVQPSDTMVTQCEARNRHGLLLANAYIYVVQLPAKILTADNQTYMAVQGSTAYLLCKAFGAPVPSVQWLDEDGTTVLQDERFFPYANGTLGIRDLQANDTGRYFCLAANDQNNVTIMANLKVKDATQITQGPRSTIEKKGSRVTFTCQASFDPSLQPSITWRGDGRDLQELGDSDKYFIEDGRLVIHSLDYSDQGNYSCVASTELDVVESRAQLLVVGSPGPVPRLVLSDLHLLTQSQVRVSWSPAEDHNAPIEKYDIEFEDKEMAPEKWYSLGKVPGNQTSTTLKLSPYVHYTFRVTAINKYGPGEPSPVSETVVTPEAAPEKNPVDVKGEGNETTNMVITWKPLRWMDWNAPQVQYRVQWRPQGTRGPWQEQIVSDPFLVVSNTSTFVPYEIKVQAVNSQGKGPEPQVTIGYSGEDYPQAIPELEGIEILNSSAVLVKWRPVDLAQVKGHLRGYNVTYWREGSQRKHSKRHIHKDHVVVPANTTSVILSGLRPYSSYHLEVQAFNGRGSGPASEFTFSTPEGVPGHPEALHLECQSNTSLLLRWQPPLSHNGVLTGYVLSYHPLDEGGKGQLSFNLRDPELRTHNLTDLSPHLRYRFQLQATTKEGPGEAIVREGGTMALSGISDFGNISATAGENYSVVSWVPKEGQCNFRFHILFKALGEEKGGASLSPQYVSYNQSSYTQWDLQPDTDYEIHLFKERMFRHQMAVKTNGTGRVRLPPAGFATE
modifications: extracellular domain
increase in neurite length by L1-CAM ([4]; 25 μg/ml L1-CAM coating, CFP-transfected CGNs): 50% | neurite outgrowth on L1-CAM ([4]; CFP-transfected CGNs on indicated L1-CAM concentrations): increases neurite outgrowth in a dose dependent manner
